Values of other authors, collected in publication PMC6191488.

Molecular target: IgE Fc (Homo sapiens) (UniProt P01854)
UniProt P01854, sequence (P01854 104-427): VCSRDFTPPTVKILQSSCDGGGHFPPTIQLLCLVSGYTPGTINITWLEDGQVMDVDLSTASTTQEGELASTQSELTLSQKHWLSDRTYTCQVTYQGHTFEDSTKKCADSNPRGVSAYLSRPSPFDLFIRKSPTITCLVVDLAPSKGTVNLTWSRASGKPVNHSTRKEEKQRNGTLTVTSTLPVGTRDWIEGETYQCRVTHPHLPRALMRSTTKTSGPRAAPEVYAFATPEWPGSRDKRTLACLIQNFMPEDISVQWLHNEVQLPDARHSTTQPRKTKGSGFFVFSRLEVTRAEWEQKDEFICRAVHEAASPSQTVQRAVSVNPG

- Kd: 0.37 nM
Substance: FcεRI alpha chain ECD (from UniProt P12319)
